Test results published in the RNAGym collection of RNA variant scans (doi:10.1021/acssynbio.7b00057).

B1: Pistol ribozyme (parent)
chain: GGGUCGUUGUUCCAUAAUCGCGUGGAUAUGGCACGCAAGUUUCUACCGGGCACCGUAAAUGUCCGACUGGAGCCGUUCGGGCGGCUAUAAACAGACCUCAGGCCCGAAGCGUGGCGGCACCUGCCGCCGGUGGUAAAAAAGAUCGGAAGAGCACACGUCU

Variants of: B1
Assay: aptazyme ON/OFF ratio, guanine; higher = stronger switching; co-transcriptional cleavage with and without guanine
With U7C U11A C12A C13G the “aptazyme ON/OFF ratio” value was 1.25.
With U8A G9U U11C C12U C13U the “aptazyme ON/OFF ratio” value was 1.16.
In the case of U7C U8C U10C U11A C12A C13A, the “aptazyme ON/OFF ratio” value is reported as 1.33.
In the case of U8C G9C U10A U11G C12A C13G, the “aptazyme ON/OFF ratio” value is reported as 1.09.
For U7A U8C U11G C12A C13A, the “aptazyme ON/OFF ratio” value was 1.07.
For U8A G9C U10A U11G, the “aptazyme ON/OFF ratio” value was 1.3.
With U7C U8C G9U U10G U11A C12A C13G the “aptazyme ON/OFF ratio” value was 1.08.
With U8C U11C C13G the “aptazyme ON/OFF ratio” value was 1.11.
For U8C G9C U10G C12U C13G, the “aptazyme ON/OFF ratio” value was 1.06.
In the case of U7A U8G G9C U10C U11A C12A C13U, the “aptazyme ON/OFF ratio” value is reported as 1.18.
With U7C U8A G9U U10C U11A C12U C13A the “aptazyme ON/OFF ratio” value was 1.11.
In the case of U7A U8G G9A U10G C12A C13G, the “aptazyme ON/OFF ratio” value is reported as 1.13.
With U7A U11G C12G C13G the “aptazyme ON/OFF ratio” value was 1.42.
With U7A U8G G9C U10A U11C C13G the “aptazyme ON/OFF ratio” value was 1.04.
With U7A U8A G9C U11G C12A the “aptazyme ON/OFF ratio” value was 1.1.
With U7A U8A G9C U11G C12G C13A the “aptazyme ON/OFF ratio” value was 1.31.
With U7A U8A G9A U11A C12U C13A the “aptazyme ON/OFF ratio” value was 1.07.
In the case of U7G U8C U10C U11C, the “aptazyme ON/OFF ratio” value is reported as 1.14.
In the case of U7G U8C G9U U10A U11A C12U C13U, the “aptazyme ON/OFF ratio” value is reported as 1.33.
In the case of U7G U8G G9U U10A U11C C12A, the “aptazyme ON/OFF ratio” value is reported as 1.32.
With U7G U8A G9A U11G C12G C13A the “aptazyme ON/OFF ratio” value was 1.14.
With U7A U8G G9U U10A C13A the “aptazyme ON/OFF ratio” value was 1.36.
With U7G U8A U10G U11A C12A C13U the “aptazyme ON/OFF ratio” value was 1.12.
In the case of G9C U10G U11A C13U, the “aptazyme ON/OFF ratio” value is reported as 1.05.
For G9C U10G U11A C13G, the “aptazyme ON/OFF ratio” value was 1.09.
With U7A U8C G9C C13G the “aptazyme ON/OFF ratio” value was 1.06.
For U7A U8G G9U U10C U11A, the “aptazyme ON/OFF ratio” value was 3.38.
In the case of U7G U8C U11A C12U C13G, the “aptazyme ON/OFF ratio” value is reported as 1.14.
For U7G U8G U10C U11G C13A, the “aptazyme ON/OFF ratio” value was 1.26.
In the case of U8A G9A U11C C12A C13A, the “aptazyme ON/OFF ratio” value is reported as 1.07.
With U7G U8G G9C U10G C13G the “aptazyme ON/OFF ratio” value was 1.28.
With U8C G9U U10G U11A C12G C13G the “aptazyme ON/OFF ratio” value was 1.33.
With U7C U8A U10G U11A C13U the “aptazyme ON/OFF ratio” value was 1.07.
In the case of U8G G9C U10A U11C C12G C13U, the “aptazyme ON/OFF ratio” value is reported as 1.14.
For G9A U10A U11A C12A C13G, the “aptazyme ON/OFF ratio” value was 1.25.
For U7G U8C G9A U11G C12U C13U, the “aptazyme ON/OFF ratio” value was 1.18.
For U7A U8A G9A U11C C12A C13G, the “aptazyme ON/OFF ratio” value was 1.14.
In the case of U7A U8G G9C U10C C12A C13G, the “aptazyme ON/OFF ratio” value is reported as 1.05.
For U8G G9A C12G C13U, the “aptazyme ON/OFF ratio” value was 1.33.
For U7A U8G G9U C12A, the “aptazyme ON/OFF ratio” value was 1.53.
In the case of U8A G9A U11A C12U, the “aptazyme ON/OFF ratio” value is reported as 1.05.
In the case of U7C U8A G9C U10A U11G C12G C13G, the “aptazyme ON/OFF ratio” value is reported as 1.15.
In the case of U7G U8C U11C, the “aptazyme ON/OFF ratio” value is reported as 1.53.
In the case of U7G U8C G9A U10C C12A C13U, the “aptazyme ON/OFF ratio” value is reported as 1.19.
With U10A U11A C12A C13A the “aptazyme ON/OFF ratio” value was 1.39.
For U10A U11A C12A C13G, the “aptazyme ON/OFF ratio” value was 1.18.
For U7G U8C G9A U10G C12G C13A, the “aptazyme ON/OFF ratio” value was 1.12.
With U7G U8C G9C U11G C12G C13A the “aptazyme ON/OFF ratio” value was 1.12.
In the case of U8C G9A U10G U11A C12G C13A, the “aptazyme ON/OFF ratio” value is reported as 1.19.
For U7C U8G C12U, the “aptazyme ON/OFF ratio” value was 2.44.
In the case of U7C U8C G9U U11C C12A C13U, the “aptazyme ON/OFF ratio” value is reported as 1.14.
For U7A G9U U10G U11G C12U C13A, the “aptazyme ON/OFF ratio” value was 1.26.
In the case of U7A G9U U10G U11G C12U C13G, the “aptazyme ON/OFF ratio” value is reported as 1.15.
In the case of G9A U10A U11G C12G C13G, the “aptazyme ON/OFF ratio” value is reported as 1.2.
With U7C G9A U11G C12U C13G the “aptazyme ON/OFF ratio” value was 1.23.
With U7G G9A U10G U11A C12G C13G the “aptazyme ON/OFF ratio” value was 1.11.
For U7A U8G G9A U10G U11C C13U, the “aptazyme ON/OFF ratio” value was 1.06.
With U7C U8A G9A U10C U11A C12U C13A the “aptazyme ON/OFF ratio” value was 1.17.
In the case of U7G U8A G9A U10A U11G C12U C13G, the “aptazyme ON/OFF ratio” value is reported as 1.24.
In the case of U7C U8C U10G U11A C12U, the “aptazyme ON/OFF ratio” value is reported as 1.12.
In the case of U7G U10G U11G C12U C13A, the “aptazyme ON/OFF ratio” value is reported as 1.13.
With G9A U11A C13A the “aptazyme ON/OFF ratio” value was 1.23.
For U7C U8G G9U U10G U11C C13U, the “aptazyme ON/OFF ratio” value was 1.16.
In the case of U7C G9A U11C C13G, the “aptazyme ON/OFF ratio” value is reported as 1.04.
For U8A G9C U11A C12U C13A, the “aptazyme ON/OFF ratio” value was 1.14.
In the case of U7A G9C U11G C12U C13U, the “aptazyme ON/OFF ratio” value is reported as 1.32.
With U7C U8G G9U U10C U11G C12U C13A the “aptazyme ON/OFF ratio” value was 1.24.
For U7C U8C G9A U11A C12A, the “aptazyme ON/OFF ratio” value was 1.21.
For U7A U8A G9C C12U C13G, the “aptazyme ON/OFF ratio” value was 1.23.
With U7G U8A G9U U10A C12A the “aptazyme ON/OFF ratio” value was 1.05.
With U7A G9U U10A C12U C13A the “aptazyme ON/OFF ratio” value was 1.29.
For U7C U8C G9A U10C U11G C12A, the “aptazyme ON/OFF ratio” value was 1.26.
For U8C G9U U11A C12G C13U, the “aptazyme ON/OFF ratio” value was 1.22.
With U8C G9A U10C C13G the “aptazyme ON/OFF ratio” value was 1.1.
For U10G C13G, the “aptazyme ON/OFF ratio” value was 1.32.
In the case of U7C G9U U10G U11A C13G, the “aptazyme ON/OFF ratio” value is reported as 1.06.
In the case of U7C U8A G9U U11G C13G, the “aptazyme ON/OFF ratio” value is reported as 1.02.
For U7C U8A U10C U11A C12G, the “aptazyme ON/OFF ratio” value was 1.2.
In the case of U7A U8G G9A U10C U11A C12A C13G, the “aptazyme ON/OFF ratio” value is reported as 1.11.
With U7G U8A G9C U11G C12A C13G the “aptazyme ON/OFF ratio” value was 1.06.
With U7C U8A G9C U11G C12G the “aptazyme ON/OFF ratio” value was 1.2.
In the case of U7C U8G G9U U10C U11G C12G C13U, the “aptazyme ON/OFF ratio” value is reported as 1.08.
In the case of U8C G9U U11C C13G, the “aptazyme ON/OFF ratio” value is reported as 1.03.
